The text below walks through data of US20210380703A1 (RIGEL PHARMACEUTICALS, published 2021).

Positions count from the first letter of the chain named.

B1: 370_A09 (antibody, V domains shown)
VH: EVQLLESGGGLVQPGGSLRLSCAASGFTFSSYSMNWVRQAPGKGLEWVAGINYNGGYTGYADSVKGRFTISRDNSKNTLYLQMNSLRAEDTAVYYCARSATWHDTHLDYWGQGTLVTVSS
VL: DIQMTQSPSSLSASVGDRVTITCRASQSILTYLNWYQQKPGKAPKLVIYAATSRASGVPSRFSGSGSGTDFTLTISSLQPEDFATYYCQQSYDTPLTFGGGTKVEIK
notes: VH/VL only
B2: 365_A10 (antibody, V domains shown)
VH: B1 VH with S33G, N35H, G55S, G59S
VL: B1 VL with A51V, R54L, T94S
notes: VH/VL only
B3: 365_B03 (antibody, V domains shown)
VH: B1 VH
VL: B1 VL with L30V, T31S, V47L, D93E, T94N
notes: VH/VL only
B4: 365_A01 (antibody, V domains shown)
VH: B1 VH with S31D, S33G, G59S
VL: B1 VL with L33V, A51T, R54L, D93S
notes: VH/VL only
B5: 365_A07 (antibody, V domains shown)
VH: B1 VH with S33G, G55S, T58K
VL: B1 VL with L30V, T31S, V47L, D93N, T94L
notes: VH/VL only
B6: 375_C11 (antibody, V domains shown)
VH: B1 VH with A49S, G50S, G59S, S99G
VL: B1 VL with T31S, L33V, V47L, A55H
notes: VH/VL only
B7: 365_B06 (antibody, V domains shown)
VH: B1 VH with S30D, S33G, N35H, A49S, G50N, T58K, G59S, T101N, H106A
VL: B1 VL with L33V, V47L, A51T, R54L, T94L
notes: VH/VL only
B8: 365_F01 (antibody, V domains shown)
VH: B1 VH with S30D, A49S, G55S, T58K, T101N
VL: B1 VL with L30V, T31S, R54L, D93E, T94L
notes: VH/VL only
B9: 366_E10 (antibody, V domains shown)
VH: B1 VH with S30D, S33G, A49S, T58K, T101N
VL: B1 VL with T31S, L33V, A55H, D93S, T94L
notes: VH/VL only
B10: 365_C12 (antibody, V domains shown)
VH: B1 VH with S33G, G55S, T58K, G59S, T101N, H106A
VL: B1 VL with L30V, T31S, L33V, A51V, R54L
notes: VH/VL only
B11: 366_A07 (antibody, V domains shown)
VH: B1 VH with S33G, N35H, G50S, T101N, H106A
VL: B1 VL with L30V, T31S, L33V, A55H, D93E, T94S
notes: VH/VL only
B12: 366_H07 (antibody, V domains shown)
VH: B1 VH with S33G, N35H, A49S, G59S, T101N, H106A
VL: B1 VL with L30I, T31S, L33V, A51V, D93E, T94N
notes: VH/VL only
B13: 365_C01 (antibody, V domains shown)
VH: B1 VH with S30D, S33G, A49S, G50S, G55S, T58K, G59S, T101N
VL: B1 VL with L30V, T31S, A51V, D93E, T94S
notes: VH/VL only
B14: 365_B01 (antibody, V domains shown)
VH: B1 VH with S30D, S33G, N35H, G50S, G55S, G59S, T101N, H106A
VL: B1 VL with L30S, T31S, L33V, D93E, T94S
notes: VH/VL only
B15: 366_G05 (antibody, V domains shown)
VH: B1 VH with S30D, S33G, A49S, G50N, G59S, T101N, H106A
VL: B1 VL with L30I, T31S, L33V, D93E, T94N
notes: VH/VL only
B16: 366_H09 (antibody, V domains shown)
VH: B1 VH with S30D, S33G, A49S, G50N, G55S, T58K, T101N, H106A
VL: B1 VL with L30V, T31S, L33V, A51T, D93S, T94S
notes: VH/VL only
B17: 365_H03 (antibody, V domains shown)
VH: B1 VH with S30D, S31D, S33G, T58K, G59S, T101N, H106A
VL: B1 VL with T31S, L33V, R54L, A55H, D93N, T94N
notes: VH/VL only
B18: 367_B02 (antibody, V domains shown)
VH: B1 VH with S30D, S33G, A49S, G50S, G59S, T101N, H106A
VL: not shown
notes: VH/VL only
B19: 376_A07 (antibody, V domains shown)
VH: B1 VH with A49S, T58K, G59S, S99G
VL: B1 VL with V47L, T94S
notes: VH/VL only
B20: 376_A05 (antibody, V domains shown)
VH: B1 VH with G55S, T58K, S99G
VL: B1 VL with V47L, D93N
notes: VH/VL only
B21: 375_F10 (antibody, V domains shown)
VH: B1 VH with A49S, S99G
VL: B1 VL
notes: VH/VL only
B22: 376_G10 (antibody, V domains shown)
VH: B1 VH with S30D, S33G, G59S, S99G, T101N, H106A
VL: B1 VL with T31S, L33V, V47L, D93E, T94S
notes: VH/VL only
B23: 376_H11 (antibody, V domains shown)
VH: B1 VH with S30D, A49S, G50N, S99G, T101N, H106A
VL: B1 VL with L30S, T31R, V47L, A51V, R54L, D93E, T94S
notes: VH/VL only
B24: 376_G05 (antibody, V domains shown)
VH: B1 VH with G59S, S99G, T101N, H106A
VL: B1 VL with L30I, T31S, L33V, D93E, T94S
notes: VH/VL only
B25: 376_F06 (antibody, V domains shown)
VH: B1 VH with S33G, A49S, S99G, T101N
VL: B1 VL with L33V, D93E
notes: VH/VL only
B26: 376_H01 (antibody, V domains shown)
VH: B1 VH with S31D, T58K, S99G, T101N, H106A
VL: B1 VL with V47L, D93S
notes: VH/VL only
B27: 375_H08 (antibody, V domains shown)
VH: B1 VH with A49S, G59S, S99G
VL: B1 VL with V47L, R54L, T94S
notes: VH/VL only
B28: 376_H04 (antibody, V domains shown)
VH: B1 VH with T58K, S99G, T101N, H106A
VL: B1 VL with L33V, T94L
notes: VH/VL only
B29: 376_A02 (antibody, V domains shown)
VH: B1 VH with T58K, G59S, S99G
VL: B1 VL with T31S, V47L, T94L
notes: VH/VL only
B30: 376_G06 (antibody, V domains shown)
VH: B1 VH with S33G, S99G, T101N
VL: B1 VL with L30V, T31S, L33V, D93N, T94S
notes: VH/VL only
Note: test concentration or dose not given here.

Sequence of human ACVR2A (P27037 20-135 limits assumed): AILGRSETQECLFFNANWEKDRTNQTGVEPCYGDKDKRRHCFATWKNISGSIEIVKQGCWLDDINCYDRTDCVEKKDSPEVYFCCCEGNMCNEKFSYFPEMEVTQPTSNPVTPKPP
T3 sequence (P27037 20-135 limits assumed): as above
Sequence of mouse ACVR2A (P27038 20-135 limits assumed): as the sequence (P27037 20-135 limits assumed) above, with K20R, V73I counted along it
Sequence of Mouse ACVR2A (P27038 20-135 limits assumed): as the sequence (P27037 20-135 limits assumed) above, with K20R, V73I counted along it

For one assay, the target named is T1, biotinylated goat anti-human kappa light chain.
T1 construct: Positive control of the ELISA
Kind of assay: ELISA; positive control. The gist of the method: (§1)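 mAb binding by ELISA; antigens: hu ACVR2A, mu ACVR2A; pos ctrl biotinylated goat anti-hu kappa LC; neg ctrl hu Fc.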
The molecule B1 displayed an optical density of 3.58 OD.
Regarding B2, the optical density is 3.45 OD.
Take B3: the optical density was found to be 3.38 OD.
For the molecule B4, the optical density was determined as 3.51 OD.
Molecule B5 gave an optical density of 3.41 OD.

The target of another assay is T2, Goat anti-Human Kappa.
T2 construct: Positive control; also called biotinylated goat anti-human kappa light chain
Put plainly: ELISA; positive control. The gist of the method:
as §1
On the technique in general: An ELISA detects its analyte on a solid surface through an enzyme-linked reagent.
Molecule B6 gave an optical density of 3.26 OD.
The same measure, in the same setting: the figure for B7 is 3.28 OD; for B8 it is 3.51 OD.
In turn, B9 registered an optical density of 3.45 OD.
The molecule B10 registered an optical density of 3.58 OD.
In turn, B11 displayed an optical density of 3.37 OD.
B12 came in with an optical density of 3.6 OD.
B13 gave an optical density of 3.63 OD.
B14 returned an optical density of 3.49 OD.
B15 registered an optical density of 3.26 OD.
B16 yielded an optical density of 3.42 OD.
In turn, B17 had an optical density of 3.27 OD.
The same measure, in the same setting: to B18 belongs 3.53 OD; to B19, 3.19 OD; to B20, 3.18 OD.
The molecule B21 had an optical density of 3.29 OD.
In the case of B22, the optical density is 3.54 OD.
B23 came in with an optical density of 3.43 OD.
The molecule B24 had an optical density of 3.49 OD.
The molecule B25 had an optical density of 3.47 OD.
The molecule B26 displayed an optical density of 3.28 OD.
B27 registered an optical density of 3.32 OD.
B28 returned an optical density of 3.51 OD.
Consider B29, for which the optical density came to 3.19 OD.
For the molecule B30, the optical density was found to be 3.49 OD.

The target in a further assay is human ACVR2A (human, UniProt P27037 20-135, limits assumed). Kind of assay: ELISA. The gist of the method:
(§2)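 Monoclonal antibodies were first applied to human or mouse ACVR2A, alongside biotinylated goat anti-human kappa light chain (positive control) and human Fc (negative control); binding was then determined by ELISA.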
Turning to B1, the optical density turned out to be 3.46 OD.
Take B2: the optical density amounted to 2.19 OD.
For B3, the optical density is 2.65 OD.
As to B4, the optical density was found to be 2.77 OD.
On the same count and under the same terms, the figure for B5 is 2.24 OD.

The next assay has as its target T3, Human ACVR2A (human, UniProt P27037 20-135, limits assumed).
T3 construct: also called activin receptor, type II A
Kind of assay: ELISA. An outline of the steps: as §2
Turning to B6, the optical density amounted to 3.59 OD.
Molecule B7 displayed an optical density of 2.25 OD.
Molecule B8 registered an optical density of 2.51 OD.
B9 yielded an optical density of 2.35 OD.
B10 returned an optical density of 1.92 OD.
The molecule B11 showed an optical density of 2.42 OD.
On the same count and under the same terms, the figure for B12 is 2.53 OD; for B13 it is 2.87 OD; for B14 it is 2.39 OD.
In turn, B15 returned an optical density of 2.21 OD.
B16: the optical density came to 2.1 OD.
Consider B17, for which the optical density came to 2.32 OD.
B18 gave an optical density of 2.29 OD.
On to B19, for which the optical density came to 3.7 OD.
As to B20, the optical density was 3.65 OD.
Molecule B21 returned an optical density of 3.69 OD.
The molecule B22 showed an optical density of 3.54 OD.
As to B23, the optical density worked out at 3.29 OD.
As to B24, the optical density was 3.75 OD.
The same measure, in the same setting: the figure for B25 is 3.52 OD; for B26 it is 3.11 OD.
In turn, B27 registered an optical density of 3.31 OD.
Molecule B28 displayed an optical density of 3.31 OD.
On to B29, for which the optical density came to 3.72 OD.
Same read-out and setting: the figure for B30 is 3.42 OD.

The target of a further assay is mouse ACVR2A (mouse, UniProt P27038 20-135, limits assumed). Kind of assay: ELISA. The gist of the method:
as §2
On to B1, for which the optical density was 3.27 OD.
B2 returned an optical density of 2.49 OD.
The same measure, in the same setting: the figure for B3 is 2.53 OD; for B4 it is 2.9 OD.
Still for that read-out and setting: to B5 belongs 2.25 OD.

The next assay addresses Mouse ACVR2A (mouse, UniProt P27038 20-135, limits assumed). Kind of assay: ELISA. An outline of the steps: as §2
Take B6: the optical density is 3.61 OD.
With B7, the optical density was 2.42 OD.
B8: the optical density was 2.47 OD.
Same read-out and setting: to B9 belongs 2.39 OD.
Molecule B10 came in with an optical density of 2.04 OD.
The molecule B11 yielded an optical density of 2.68 OD.
With B12, the optical density is 2.67 OD.
With B13, the optical density is 3.02 OD.
On the same count and under the same terms, to B14 belongs 2.65 OD.
As to B15, the optical density is 2.5 OD.
With B16, the optical density is 2.44 OD.
The molecule B17 displayed an optical density of 2.65 OD.
With B18, the optical density was 2.42 OD.
The same measure, in the same setting: to B19 belongs 3.72 OD; to B20, 3.64 OD.
As to B21, the optical density worked out at 3.77 OD.
With B22, the optical density amounted to 3.52 OD.
On the same count and under the same terms, the figure for B23 is 3.31 OD.
B24 displayed an optical density of 3.77 OD.
The molecule B25 came in with an optical density of 3.65 OD.
The same measure, in the same setting: the figure for B26 is 3.31 OD; for B27 it is 3.28 OD.
Take B28: the optical density turned out to be 3.34 OD.
The molecule B29 returned an optical density of 3.63 OD.
On the same count and under the same terms, the figure for B30 is 3.58 OD.
